± gives the uncertainty stated by the source.
B1: Zinc finger homeobox protein 4, residues 2086 to 2141; numbered along this chain, Q86UP3 (parent)
chain: RPRTRITDDQLKILRAYFDINNSPSEEQIQEMAEKSGLSQKVIKHWFRNTLFKERQ
B2: Ubiquitin-protein ligase residues 30 to 86; numbered along this chain, Q05086 (parent)
chain: KHLIERYYHQLTEGCGNEACTNEFCASCPTFLRMDNNAAAIKALELYKINAKLCDPH

Variants of: B1
Assay: abundance fitness (aPCA) (normalised: wild type 0, dead -1); higher = more abundant; growth selection in yeast, the domain comes from the species named
Conditions: Homo sapiens

Variant	abundance fitness
I6D	-0.148 ± 0.13
I6F	0.002 ± 0.07
I6T	-0.246 ± 0.074
I6P	-0.103 ± 0.076
I6C	-0.318 ± 0.084
I6N	-0.377 ± 0.084
I6S	-0.245 ± 0.07
I6W	-0.553 ± 0.11
I6H	-0.271 ± 0.071
I6Q	-0.389 ± 0.11
I6K	-0.433 ± 0.13
I6L	0.006 ± 0.062
I6A	-0.069 ± 0.086
I6E	-0.18 ± 0.2
I6M	0.369 ± 0.094
I6G	-0.381 ± 0.09
I6R	-0.596 ± 0.077
I6V	-0.04 ± 0.077
R1C	-0.033 ± 0.14
R1N	0.247 ± 0.12
R1F	-0.327 ± 0.27
R1H	-0.211 ± 0.25
R1V	-0.21 ± 0.23
R1W	-1.13 ± 0.23
R1A	-0.327 ± 0.37
R1Y	-0.157 ± 0.19

Variant	abundance fitness
R1L	-0.101 ± 0.2
R1K	-0.891 ± 0.33
R1S	-0.284 ± 0.096
R1T	-0.131 ± 0.12
R1M	-0.634 ± 0.22
R1D	0.188 ± 0.24
R1I	-0.116 ± 0.12
R1P	-0.512 ± 0.22
R3P	-0.096 ± 0.12
R3H	0.042 ± 0.13
R3N	-0.033 ± 0.12
R3E	0.054 ± 0.12
R3W	-0.569 ± 0.09
R3Y	0.026 ± 0.12
R3D	0.015 ± 0.1
R3G	0.099 ± 0.064
R3Q	0.201 ± 0.13
R3T	0.102 ± 0.091
R3K	-0.011 ± 0.16
R3C	-0.343 ± 0.097
R3I	-0.136 ± 0.1
R3M	0.216 ± 0.11
R3L	-0.024 ± 0.083
R3F	-0.15 ± 0.095
R3S	0.071 ± 0.079
R3V	-0.037 ± 0.068

Variant	abundance fitness
T4P	-0.139 ± 0.12
T4I	-0.048 ± 0.11
T4K	-0.329 ± 0.15
T4E	-0.096 ± 0.11
T4S	-0.198 ± 0.077
T4V	-0.116 ± 0.078
T4F	0.036 ± 0.12
T4Q	-0.284 ± 0.13
T4M	0.224 ± 0.11
T4H	0.01 ± 0.17
T4N	0.123 ± 0.13
T4W	-1.16 ± 0.16
T4L	-0.011 ± 0.081
T4C	-0.965 ± 0.24
T4R	-0.413 ± 0.076
T4A	-0.271 ± 0.084
P2Q	0.173 ± 0.13
P2C	-0.844 ± 0.12
P2W	-1.01 ± 0.15
P2S	0.057 ± 0.078
P2L	-0.047 ± 0.088
P2R	-0.083 ± 0.08
P2F	0.157 ± 0.13
P2Y	0.022 ± 0.16
P2V	0.067 ± 0.081
P2N	0.18 ± 0.16

Variant	abundance fitness
P2M	0.143 ± 0.14
P2H	0.187 ± 0.14
P2I	-0.067 ± 0.11
P2G	0.048 ± 0.077
P2A	-0.134 ± 0.097
P2T	0.049 ± 0.1
P2D	0.033 ± 0.11
P2K	0.197 ± 0.15
R5G	-0.037 ± 0.069
R5P	0.172 ± 0.072
R5C	0.136 ± 0.08
R5D	0.198 ± 0.081
R5K	0.191 ± 0.1
R5V	0.022 ± 0.067
R5N	0.184 ± 0.076
R5T	0.182 ± 0.068
R5Q	0.183 ± 0.084
R5M	0.16 ± 0.094
R5I	0.067 ± 0.072
R5F	0.058 ± 0.075
R5W	-0.184 ± 0.1
R5L	0.207 ± 0.066
R5E	0.163 ± 0.11
R5Y	0.082 ± 0.073

Variants of: B2
Assay: as above
Conditions: Homo sapiens

Variant	abundance fitness
L53S	-0.097 ± 0.074
L53V	-0.056 ± 0.067
L53T	-0.109 ± 0.081
L53N	-0.433 ± 0.17
L53W	-0.164 ± 0.076
L53Y	-0.062 ± 0.16
L53H	-0.191 ± 0.15
L53K	-0.071 ± 0.093
L53Q	0.04 ± 0.11
L53P	-0.23 ± 0.11
L53I	-0.032 ± 0.15
L53M	-0.073 ± 0.11
P56S	-0.081 ± 0.082
P56A	-0.035 ± 0.064
P56H	-0.22 ± 0.11
P56Y	-0.049 ± 0.19
P56D	-0.035 ± 0.11
P56K	-0.055 ± 0.13
P56C	-0.041 ± 0.11
P56W	-0.038 ± 0.096
P56R	0.023 ± 0.065
P56L	0.044 ± 0.065

Variant	abundance fitness
P56Q	-0.068 ± 0.12
P56F	0.098 ± 0.17
P56G	0.024 ± 0.069
P56T	0.016 ± 0.11
D55Y	-0.159 ± 0.086
D55S	-0.059 ± 0.068
D55R	-0.118 ± 0.066
D55L	-0.027 ± 0.057
D55M	0.006 ± 0.088
D55A	-0.043 ± 0.059
D55F	-0.06 ± 0.097
D55C	-0.099 ± 0.088
D55Q	0.011 ± 0.08
D55H	-0.227 ± 0.11
D55P	-0.027 ± 0.088
D55T	-0.087 ± 0.085
D55G	-0.018 ± 0.061
D55K	0.056 ± 0.084
D55W	-0.106 ± 0.074
D55E	-0.017 ± 0.072
D55N	0.017 ± 0.091
D55V	-0.012 ± 0.057

Variant	abundance fitness
D55I	-0.149 ± 0.098
C54F	-0.448 ± 0.45
C54Y	-0.94 ± 0.25
C54S	-0.076 ± 0.42
H57G	0.013 ± 0.16
H57E	-0.505 ± 0.35
H57W	-0.348 ± 0.23
H57D	-0.051 ± 0.13
H57P	-0.006 ± 0.1
H57V	0.173 ± 0.19
H57K	-0.092 ± 0.43
H57Y	0.017 ± 0.074
H57T	0.109 ± 0.16
H57Q	0.009 ± 0.22
H57C	0.175 ± 0.2
H57N	0.104 ± 0.16
H57R	-0.052 ± 0.11
H57F	0.076 ± 0.26
H57S	-0.268 ± 0.14
H57A	-0.022 ± 0.15
H57I	-0.408 ± 0.43
